Six molecules from patent publication US20140087995A1 (published 2014) can be followed below.

The chains are these.
T1: human amylin receptor (amylin 3(a) receptor: human calcitonin receptor with RAMP-3) (human, UniProt P30988 25-474; O60896 24-148)
T1 construct: whole, on cells; also called hAmylin-R; hAmylinR
T1 sequence (looked up) 1: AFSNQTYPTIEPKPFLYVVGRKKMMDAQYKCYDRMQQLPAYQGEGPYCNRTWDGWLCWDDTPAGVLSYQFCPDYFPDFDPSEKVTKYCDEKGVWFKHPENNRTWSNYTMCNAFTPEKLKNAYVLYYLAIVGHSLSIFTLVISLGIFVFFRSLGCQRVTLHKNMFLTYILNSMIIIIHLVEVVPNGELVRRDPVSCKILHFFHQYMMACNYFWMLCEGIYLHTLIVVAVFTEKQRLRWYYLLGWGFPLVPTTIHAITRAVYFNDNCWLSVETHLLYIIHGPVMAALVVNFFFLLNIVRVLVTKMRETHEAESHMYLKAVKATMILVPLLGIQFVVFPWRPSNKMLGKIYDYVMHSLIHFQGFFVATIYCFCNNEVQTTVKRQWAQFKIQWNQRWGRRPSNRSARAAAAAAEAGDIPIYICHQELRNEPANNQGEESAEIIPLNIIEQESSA
T1 sequence (looked up) 2: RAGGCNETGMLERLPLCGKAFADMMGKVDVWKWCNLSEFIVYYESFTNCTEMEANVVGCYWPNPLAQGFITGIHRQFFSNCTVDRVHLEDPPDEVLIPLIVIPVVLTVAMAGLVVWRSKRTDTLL

B1: N^ε1-[2-[2-[2-[[(4S)-4-carboxy-4-(19-carboxynonadecanoylamino)butanoyl]amino]ethoxy]ethoxy]acetyl]-[Arg17,Pro21,Pro27]-h-amylin (peptide)
peptide: K([AEEA-γGlu-C20 diacid])CNTATCATQRLANFLRHSSPNFGAIPSSTNVGSNTY-NH2
modifications: disulfide 2-7; N-terminus assumed
SMILES: CC[C@H](C)[C@H](NC(=O)[C@H](C)NC(=O)CNC(=O)[C@H](Cc1ccccc1)NC(=O)[C@H](CC(N)=O)NC(=O)[C@@H]1CCCN1C(=O)[C@H](CO)NC(=O)[C@H](CO)NC(=O)[C@H](Cc1c[nH]cn1)NC(=O)[C@H](CCCNC(=N)N)NC(=O)[C@H](CC(C)C)NC(=O)[C@H](Cc1ccccc1)NC(=O)[C@H](CC(N)=O)NC(=O)[C@H](C)NC(=O)[C@H](CC(C)C)NC(=O)[C@H](CCCNC(=N)N)NC(=O)[C@H](CCC(N)=O)NC(=O)[C@@H](NC(=O)[C@H](C)NC(=O)[C@@H]1CSSC[C@H](NC(=O)[C@@H](N)CCCCNC(=O)COCCOCCNC(=O)CC[C@H](NC(=O)CCCCCCCCCCCCCCCCCCC(=O)O)C(=O)O)C(=O)N[C@@H](CC(N)=O)C(=O)N[C@@H]([C@@H](C)O)C(=O)N[C@@H](C)C(=O)N[C@@H]([C@@H](C)O)C(=O)N1)[C@@H](C)O)C(=O)N1CCC[C@H]1C(=O)N[C@@H](CO)C(=O)N[C@@H](CO)C(=O)N[C@H](C(=O)N[C@@H](CC(N)=O)C(=O)N[C@H](C(=O)NCC(=O)N[C@@H](CO)C(=O)N[C@@H](CC(N)=O)C(=O)N[C@H](C(=O)N[C@@H](Cc1ccc(O)cc1)C(N)=O)[C@@H](C)O)C(C)C)[C@@H](C)O
notes: also called 41; compound 41
B2: N^ε1-[(4S)--4-carboxy-4-(19-carboxynonadecanoylamino)butanoyl]-[Glu14,Arg17,Pro21,Pro27,Pro37]-h-amylin (peptide)
peptide: K([γGlu-C20 diacid])CNTATCATQRLAEFLRHSSPNFGAIPSSTNVGSNTP-NH2
modifications: disulfide 2-7; N-terminus assumed
SMILES: CC[C@H](C)[C@H](NC(=O)[C@H](C)NC(=O)CNC(=O)[C@H](Cc1ccccc1)NC(=O)[C@H](CC(N)=O)NC(=O)[C@@H]1CCCN1C(=O)[C@H](CO)NC(=O)[C@H](CO)NC(=O)[C@H](Cc1c[nH]cn1)NC(=O)[C@H](CCCNC(=N)N)NC(=O)[C@H](CC(C)C)NC(=O)[C@H](Cc1ccccc1)NC(=O)[C@H](CCC(=O)O)NC(=O)[C@H](C)NC(=O)[C@H](CC(C)C)NC(=O)[C@H](CCCNC(=N)N)NC(=O)[C@H](CCC(N)=O)NC(=O)[C@@H](NC(=O)[C@H](C)NC(=O)[C@@H]1CSSC[C@H](NC(=O)[C@@H](N)CCCCNC(=O)CC[C@H](NC(=O)CCCCCCCCCCCCCCCCCCC(=O)O)C(=O)O)C(=O)N[C@@H](CC(N)=O)C(=O)N[C@@H]([C@@H](C)O)C(=O)N[C@@H](C)C(=O)N[C@@H]([C@@H](C)O)C(=O)N1)[C@@H](C)O)C(=O)N1CCC[C@H]1C(=O)N[C@@H](CO)C(=O)N[C@@H](CO)C(=O)N[C@H](C(=O)N[C@@H](CC(N)=O)C(=O)N[C@H](C(=O)NCC(=O)N[C@@H](CO)C(=O)N[C@@H](CC(N)=O)C(=O)N[C@H](C(=O)N1CCC[C@H]1C(N)=O)[C@@H](C)O)C(C)C)[C@@H](C)O
notes: also called 12; compound 12
B3: N^ε1N^ε1-[(4S)-4-carboxy-4-(19-carboxynonadecanoylamino)butanoyl]-[His14,Arg17,Pro21,Pro27,Pro34]-h-amylin (peptide)
peptide: K([γGlu-C20 diacid])CNTATCATQRLAHFLRHSSPNFGAIPSSTNVGPNTY-NH2
modifications: disulfide 2-7; N-terminus assumed
SMILES: CC[C@H](C)[C@H](NC(=O)[C@H](C)NC(=O)CNC(=O)[C@H](Cc1ccccc1)NC(=O)[C@H](CC(N)=O)NC(=O)[C@@H]1CCCN1C(=O)[C@H](CO)NC(=O)[C@H](CO)NC(=O)[C@H](Cc1c[nH]cn1)NC(=O)[C@H](CCCNC(=N)N)NC(=O)[C@H](CC(C)C)NC(=O)[C@H](Cc1ccccc1)NC(=O)[C@H](Cc1c[nH]cn1)NC(=O)[C@H](C)NC(=O)[C@H](CC(C)C)NC(=O)[C@H](CCCNC(=N)N)NC(=O)[C@H](CCC(N)=O)NC(=O)[C@@H](NC(=O)[C@H](C)NC(=O)[C@@H]1CSSC[C@H](NC(=O)[C@@H](N)CCCCNC(=O)CC[C@H](NC(=O)CCCCCCCCCCCCCCCCCCC(=O)O)C(=O)O)C(=O)N[C@@H](CC(N)=O)C(=O)N[C@@H]([C@@H](C)O)C(=O)N[C@@H](C)C(=O)N[C@@H]([C@@H](C)O)C(=O)N1)[C@@H](C)O)C(=O)N1CCC[C@H]1C(=O)N[C@@H](CO)C(=O)N[C@@H](CO)C(=O)N[C@H](C(=O)N[C@@H](CC(N)=O)C(=O)N[C@H](C(=O)NCC(=O)N1CCC[C@H]1C(=O)N[C@@H](CC(N)=O)C(=O)N[C@H](C(=O)N[C@@H](Cc1ccc(O)cc1)C(N)=O)[C@@H](C)O)C(C)C)[C@@H](C)O
notes: also called 67; compound 67
B4: N{Alpha-1}-[(4S)-4-carboxy-4-(19-carboxynonadecanoylamino)butanoyl]-[Glu14,Arg17,Pro21,Pro27,Lys34]-h-amylin (peptide)
peptide: {C20 diacid-γGlu}-KCNTATCATQRLAEFLRHSSPNFGAIPSSTNVGKNTY-NH2
modifications: disulfide 2-7
SMILES: CC[C@H](C)[C@H](NC(=O)[C@H](C)NC(=O)CNC(=O)[C@H](Cc1ccccc1)NC(=O)[C@H](CC(N)=O)NC(=O)[C@@H]1CCCN1C(=O)[C@H](CO)NC(=O)[C@H](CO)NC(=O)[C@H](Cc1c[nH]cn1)NC(=O)[C@H](CCCNC(=N)N)NC(=O)[C@H](CC(C)C)NC(=O)[C@H](Cc1ccccc1)NC(=O)[C@H](CCC(=O)O)NC(=O)[C@H](C)NC(=O)[C@H](CC(C)C)NC(=O)[C@H](CCCNC(=N)N)NC(=O)[C@H](CCC(N)=O)NC(=O)[C@@H](NC(=O)[C@H](C)NC(=O)[C@@H]1CSSC[C@H](NC(=O)[C@H](CCCCN)NC(=O)CC[C@H](NC(=O)CCCCCCCCCCCCCCCCCCC(=O)O)C(=O)O)C(=O)N[C@@H](CC(N)=O)C(=O)N[C@@H]([C@@H](C)O)C(=O)N[C@@H](C)C(=O)N[C@@H]([C@@H](C)O)C(=O)N1)[C@@H](C)O)C(=O)N1CCC[C@H]1C(=O)N[C@@H](CO)C(=O)N[C@@H](CO)C(=O)N[C@H](C(=O)N[C@@H](CC(N)=O)C(=O)N[C@H](C(=O)NCC(=O)N[C@@H](CCCCN)C(=O)N[C@@H](CC(N)=O)C(=O)N[C@H](C(=O)N[C@@H](Cc1ccc(O)cc1)C(N)=O)[C@@H](C)O)C(C)C)[C@@H](C)O
notes: also called 36; compound 36
B5: N^ε21-[(4S)-4-carboxy-4-[[(4S)-4-carboxy-4-(19-carboxynonadecanoylamino)butanoyl]amino]butanoyl]-[Asp14,Arg17,Lys21,Pro27,Asp35]-h-amylin (peptide)
peptide: KCNTATCATQRLADFLRHSSK([γGlu-γGlu-C20 diacid])NFGAIPSSTNVGSDTY-NH2
modifications: disulfide 2-7; N-terminus assumed
SMILES: CC[C@H](C)[C@H](NC(=O)[C@H](C)NC(=O)CNC(=O)[C@H](Cc1ccccc1)NC(=O)[C@H](CC(N)=O)NC(=O)[C@H](CCCCNC(=O)CC[C@H](NC(=O)CC[C@H](NC(=O)CCCCCCCCCCCCCCCCCCC(=O)O)C(=O)O)C(=O)O)NC(=O)[C@H](CO)NC(=O)[C@H](CO)NC(=O)[C@H](Cc1c[nH]cn1)NC(=O)[C@H](CCCNC(=N)N)NC(=O)[C@H](CC(C)C)NC(=O)[C@H](Cc1ccccc1)NC(=O)[C@H](CC(=O)O)NC(=O)[C@H](C)NC(=O)[C@H](CC(C)C)NC(=O)[C@H](CCCNC(=N)N)NC(=O)[C@H](CCC(N)=O)NC(=O)[C@@H](NC(=O)[C@H](C)NC(=O)[C@@H]1CSSC[C@H](NC(=O)[C@@H](N)CCCCN)C(=O)N[C@@H](CC(N)=O)C(=O)N[C@@H]([C@@H](C)O)C(=O)N[C@@H](C)C(=O)N[C@@H]([C@@H](C)O)C(=O)N1)[C@@H](C)O)C(=O)N1CCC[C@H]1C(=O)N[C@@H](CO)C(=O)N[C@@H](CO)C(=O)N[C@H](C(=O)N[C@@H](CC(N)=O)C(=O)N[C@H](C(=O)NCC(=O)N[C@@H](CO)C(=O)N[C@@H](CC(=O)O)C(=O)N[C@H](C(=O)N[C@@H](Cc1ccc(O)cc1)C(N)=O)[C@@H](C)O)C(C)C)[C@@H](C)O
notes: also called 59; compound 59
B6: N^ε1-[2-[2-[2-(19-carboxynonadecanoylamino)ethoxy]ethoxy]acetyl]-[Arg17,Pro21,Pro27]-h-amylin (peptide)
peptide: K([AEEA-C20 diacid])CNTATCATQRLANFLRHSSPNFGAIPSSTNVGSNTY-NH2
modifications: disulfide 2-7; N-terminus assumed
SMILES: CC[C@H](C)[C@H](NC(=O)[C@H](C)NC(=O)CNC(=O)[C@H](Cc1ccccc1)NC(=O)[C@H](CC(N)=O)NC(=O)[C@@H]1CCCN1C(=O)[C@H](CO)NC(=O)[C@H](CO)NC(=O)[C@H](Cc1c[nH]cn1)NC(=O)[C@H](CCCNC(=N)N)NC(=O)[C@H](CC(C)C)NC(=O)[C@H](Cc1ccccc1)NC(=O)[C@H](CC(N)=O)NC(=O)[C@H](C)NC(=O)[C@H](CC(C)C)NC(=O)[C@H](CCCNC(=N)N)NC(=O)[C@H](CCC(N)=O)NC(=O)[C@@H](NC(=O)[C@H](C)NC(=O)[C@@H]1CSSC[C@H](NC(=O)[C@@H](N)CCCCNC(=O)COCCOCCNC(=O)CCCCCCCCCCCCCCCCCCC(=O)O)C(=O)N[C@@H](CC(N)=O)C(=O)N[C@@H]([C@@H](C)O)C(=O)N[C@@H](C)C(=O)N[C@@H]([C@@H](C)O)C(=O)N1)[C@@H](C)O)C(=O)N1CCC[C@H]1C(=O)N[C@@H](CO)C(=O)N[C@@H](CO)C(=O)N[C@H](C(=O)N[C@@H](CC(N)=O)C(=O)N[C@H](C(=O)NCC(=O)N[C@@H](CO)C(=O)N[C@@H](CC(N)=O)C(=O)N[C@H](C(=O)N[C@@H](Cc1ccc(O)cc1)C(N)=O)[C@@H](C)O)C(C)C)[C@@H](C)O
notes: also called 43; compound 43

Numbered stars: 1 amine (or outer) side, 2 acyl side, 3 side chain; on linkers, the order of the positions; unused ones are H or OH. Bridge positions count the residues as written; N and C are the ends. Side chains are listed from the residue outwards. Ends that are not written are not given here. * marks the point of attachment. C20 diacid = O=C(O)CCCCCCCCCCCCCCCCCCC(=O)*; γGlu = O=C(O)[C@H](CCC(=O)[*:2])N[*:1]; AEEA = NCCOCCOCC(=O)O

The target in this assay is T1, human amylin receptor (amylin 3(a) …). The experiment in a line: SPA displacement of 125I-rat amylin, hAmylin 3(a) receptor membranes. A digest of the protocol: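 One-site competition analysis of SPA counts yielded IC₅₀ as a measure of affinity. Membranes were at 35 ng/μL final; incubation was 120 min at 25° C, pH 7.4.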
A general note: Loss of bound radioactivity is the signal in a displacement assay; it reports binding, not function.
The term IC50 denotes the concentration that gives 50% inhibition. On to B1, for which the IC50 amounted to 0.427 nM.

For the molecule B2, the IC50 was 0.142 nM.

Turning to B3, the IC50 is 0.09 nM.

As for B4, the IC50 amounted to 0.403 nM.

Regarding B5, the IC50 was determined as 1.19 nM.

Consider B6, for which the IC50 is 0.076 nM.
